The assay has as its target human APC mutation cluster region fragment (codons 1,294-1,369) with N-terminal VSV tag, 4 glycine s (human) (UniProt P25054).

Sequence of human APC mutation cluster region fragment (codons 1,294-1,369) with N-terminal VSV tag, 4 glycine s (human) (P25054 other isoform, or with tags, fused parts or gaps limits assumed): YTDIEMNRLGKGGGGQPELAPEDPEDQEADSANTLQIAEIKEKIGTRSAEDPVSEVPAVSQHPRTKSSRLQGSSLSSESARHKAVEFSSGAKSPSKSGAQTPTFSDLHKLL

Regarding “anti-VSV antibody conjugated to the Cy3 fluorophore (clone P5D4; Sigma-Aldrich, St. Louis, Mo.)”, the signal to noise ratio is 179 :1.

Values taken from US20180017550A1.
